The series concerns Escherichia coli TOP10. Put plainly: shrunken log2 fold change of peptide-encoding DNA abundance (4.5 h post-induction vs induction); higher = less antimicrobial activity (less host growth inhibition). As to conditions: time post-induction: 4.5 h; library: site-saturation at positions 5, 18, 19, 20.
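Further: peptides expressed intracellularly from a pBAD plasmid library in pooled LB shake-flask culture, induced with 0.3% L-arabinose, DNA abundance read by NGS, three biological replicates, DESeq2 with apeglm shrinkage.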

On to RRIRKRPPRLPRPRPRPVDRPRP, for which the “shrunken log2 fold change” value was 0.248.
As to RRIRSRPPRLPRPRPRPDIRPRP, the “shrunken log2 fold change” value was -0.0108.
Take RRIRARPPRLPRPRPRPYSMPRP: the “shrunken log2 fold change” value was -0.484.
Turning to RRIRFRPPRLPRPRPRPIDEPRP, the “shrunken log2 fold change” value is 0.121.
To RRIRSRPPRLPRPRPRPVDGPRP belongs 0.826.
Take RRIRPRPPRLPRPRPRPGIAPRP: the “shrunken log2 fold change” value amounted to 0.218.
Take RRIRERPPRLPRPRPRPIMQPRP: the “shrunken log2 fold change” value was -0.164.
For the sequence RRIRRRPPRLPRPRPRPGLFPRP, the “shrunken log2 fold change” value stood at 0.389.
For RRIRHRPPRLPRPRPRPGWTPRP, the “shrunken log2 fold change” value is -0.00563.
Regarding RRIRTRPPRLPRPRPRPHHKPRP, the “shrunken log2 fold change” value was -0.614.
For RRIRARPPRLPRPRPRPHQWPRP the value was 0.137; for RRIRKRPPRLPRPRPRPLFGPRP, 0.439.
Turning to RRIRPRPPRLPRPRPRPCGRPRP, the “shrunken log2 fold change” value amounted to 0.302.
For RRIRGRPPRLPRPRPRPHHDPRP the value was -0.102.
To RRIRLRPPRLPRPRPRPLKTPRP belongs -0.0135; to RRIRIRPPRLPRPRPRPWMRPRP, -0.37; to RRIRSRPPRLPRPRPRPRRSPRP, 0.181.
Consider RRIRKRPPRLPRPRPRPWNYPRP, for which the “shrunken log2 fold change” value is -0.154.
Consider RRIRPRPPRLPRPRPRPVHYPRP, for which the “shrunken log2 fold change” value was -0.121.
To RRIRHRPPRLPRPRPRPHQPPRP belongs -0.0185; to RRIRFRPPRLPRPRPRPVIPPRP, -0.102; to RRIRMRPPRLPRPRPRPAWEPRP, 0.655.
To RRIRVRPPRLPRPRPRPWPGPRP belongs 0.101.
For RRIRWRPPRLPRPRPRPYHFPRP the value was 0.0137.
Regarding RRIRTRPPRLPRPRPRPRMGPRP, the “shrunken log2 fold change” value amounted to 0.108.
For RRIRPRPPRLPRPRPRPGGWPRP the value was 0.724.
For RRIRWRPPRLPRPRPRPHFTPRP the value was -0.306; for RRIRCRPPRLPRPRPRPSCKPRP, -0.685.
To RRIRFRPPRLPRPRPRPMRSPRP belongs 0.904.
Consider RRIRYRPPRLPRPRPRPDARPRP, for which the “shrunken log2 fold change” value is -0.294.
To RRIRWRPPRLPRPRPRPEHNPRP belongs 0.147; to RRIRGRPPRLPRPRPRPACAPRP, 1.13; to RRIRTRPPRLPRPRPRPHRLPRP, -0.387.
To RRIRQRPPRLPRPRPRPKEFPRP belongs 0.0639; to RRIRLRPPRLPRPRPRPCMNPRP, -0.07; to RRIRNRPPRLPRPRPRPRLFPRP, 0.0322.
Regarding RRIRTRPPRLPRPRPRPGFPPRP, the “shrunken log2 fold change” value was -0.0413.
Take RRIRCRPPRLPRPRPRPHSIPRP: the “shrunken log2 fold change” value is -0.101.
With RRIRLRPPRLPRPRPRPGPCPRP, the “shrunken log2 fold change” value worked out at 0.121.
For RRIRHRPPRLPRPRPRPIQAPRP, the “shrunken log2 fold change” value was -0.0107.
For RRIRCRPPRLPRPRPRPCWVPRP the value was -0.4; for RRIRQRPPRLPRPRPRPREHPRP, -0.117.
As to RRIRKRPPRLPRPRPRPALWPRP, the “shrunken log2 fold change” value came to 0.27.
To RRIRMRPPRLPRPRPRPMVHPRP belongs 0.0734; to RRIRFRPPRLPRPRPRPMFWPRP, -0.0645; to RRIRVRPPRLPRPRPRPHYKPRP, -0.389.
Turning to RRIRNRPPRLPRPRPRPLQLPRP, the “shrunken log2 fold change” value was -0.288.
For the sequence RRIRIRPPRLPRPRPRPLMRPRP, the “shrunken log2 fold change” value turned out to be 0.466.
Consider RRIRIRPPRLPRPRPRPREMPRP, for which the “shrunken log2 fold change” value came out at 0.00525.
RRIRMRPPRLPRPRPRPRWHPRP: the “shrunken log2 fold change” value was 0.378.
RRIRIRPPRLPRPRPRPLVRPRP: the “shrunken log2 fold change” value worked out at 0.0548.
Take RRIRGRPPRLPRPRPRPDFKPRP: the “shrunken log2 fold change” value came out at 0.386.
For RRIRLRPPRLPRPRPRPGYWPRP the value was -0.0133; for RRIRARPPRLPRPRPRPHWDPRP, 0.116.
As to RRIRKRPPRLPRPRPRPTFQPRP, the “shrunken log2 fold change” value amounted to 0.05.
Consider RRIRQRPPRLPRPRPRPFIRPRP, for which the “shrunken log2 fold change” value is -0.00448.
For RRIRDRPPRLPRPRPRPTRAPRP the value was 0.889; for RRIRLRPPRLPRPRPRPAQSPRP, 0.485; for RRIRRRPPRLPRPRPRPYTCPRP, 0.0906.
To RRIRGRPPRLPRPRPRPAMPPRP belongs 0.492.
On to RRIRQRPPRLPRPRPRPHLEPRP, for which the “shrunken log2 fold change” value is -0.15.
For the sequence RRIRDRPPRLPRPRPRPLDKPRP, the “shrunken log2 fold change” value is -0.0615.
For RRIRRRPPRLPRPRPRPYGCPRP, the “shrunken log2 fold change” value was -0.00402.
To RRIRFRPPRLPRPRPRPTRTPRP belongs 0.326; to RRIRIRPPRLPRPRPRPNSWPRP, -0.691; to RRIRFRPPRLPRPRPRPYTYPRP, -0.141.
To RRIRWRPPRLPRPRPRPQMYPRP belongs -0.168.
For RRIRGRPPRLPRPRPRPHLLPRP, the “shrunken log2 fold change” value is 0.306.
Regarding RRIRIRPPRLPRPRPRPTECPRP, the “shrunken log2 fold change” value was found to be 0.00877.
Take RRIRARPPRLPRPRPRPGIYPRP: the “shrunken log2 fold change” value is -0.225.
In the case of RRIRTRPPRLPRPRPRPMQWPRP, the “shrunken log2 fold change” value stood at 0.0688.
For RRIRGRPPRLPRPRPRPDVLPRP the value was 0.246.
For RRIRMRPPRLPRPRPRPVLMPRP the value was 0.229; for RRIRCRPPRLPRPRPRPPQNPRP, 0.801; for RRIRMRPPRLPRPRPRPDWMPRP, -0.0455.
To RRIRPRPPRLPRPRPRPQCWPRP belongs 0.0194.
RRIRRRPPRLPRPRPRPHKIPRP: the “shrunken log2 fold change” value was -0.182.
For RRIRCRPPRLPRPRPRPVRYPRP the value was 0.0829; for RRIRHRPPRLPRPRPRPHTVPRP, -0.606.
To RRIRVRPPRLPRPRPRPPCHPRP belongs -0.451; to RRIRGRPPRLPRPRPRPCKYPRP, -0.533; to RRIRCRPPRLPRPRPRPLPSPRP, 0.214.
RRIRRRPPRLPRPRPRPMQIPRP: the “shrunken log2 fold change” value came to 0.58.
To RRIRERPPRLPRPRPRPNLFPRP belongs 0.0891.
Consider RRIRGRPPRLPRPRPRPEQCPRP, for which the “shrunken log2 fold change” value came to 0.0643.
As for RRIRMRPPRLPRPRPRPYPKPRP, the “shrunken log2 fold change” value amounted to 0.0427.
With RRIRFRPPRLPRPRPRPNWMPRP, the “shrunken log2 fold change” value was -0.0436.
For RRIRMRPPRLPRPRPRPKDLPRP the value was 0.153; for RRIRTRPPRLPRPRPRPQDSPRP, -0.153; for RRIRWRPPRLPRPRPRPHNLPRP, -0.414.
Turning to RRIRIRPPRLPRPRPRPCQHPRP, the “shrunken log2 fold change” value is -0.183.
For RRIRQRPPRLPRPRPRPNYVPRP the value was -0.426; for RRIRCRPPRLPRPRPRPCMWPRP, -0.124.
Turning to RRIRDRPPRLPRPRPRPNEIPRP, the “shrunken log2 fold change” value is -0.0208.
For RRIRGRPPRLPRPRPRPLCNPRP the value was 0.388; for RRIRARPPRLPRPRPRPNQFPRP, -0.014.
For RRIRNRPPRLPRPRPRPLVSPRP the value was -0.185.
RRIRHRPPRLPRPRPRPFLSPRP: the “shrunken log2 fold change” value is -0.187.
To RRIRTRPPRLPRPRPRPEWAPRP belongs 0.213; to RRIRGRPPRLPRPRPRPGYAPRP, 0.222.
For RRIRNRPPRLPRPRPRPMAVPRP the value was -0.0402.
Consider RRIRSRPPRLPRPRPRPLVWPRP, for which the “shrunken log2 fold change” value is 0.272.
For RRIRKRPPRLPRPRPRPDQNPRP, the “shrunken log2 fold change” value turned out to be 0.678.
With RRIRYRPPRLPRPRPRPSIIPRP, the “shrunken log2 fold change” value is -0.236.
For RRIRDRPPRLPRPRPRPVEKPRP the value was 0.0436; for RRIRQRPPRLPRPRPRPLENPRP, -0.0226; for RRIRQRPPRLPRPRPRPAHWPRP, 0.261.
To RRIRLRPPRLPRPRPRPLNQPRP belongs -0.917; to RRIRLRPPRLPRPRPRPPEPPRP, 0.232; to RRIRQRPPRLPRPRPRPGRNPRP, -0.0272.
For RRIRLRPPRLPRPRPRPHLVPRP the value was 0.0694.
Regarding RRIRCRPPRLPRPRPRPCIVPRP, the “shrunken log2 fold change” value is -0.718.
Regarding RRIRDRPPRLPRPRPRPDMFPRP, the “shrunken log2 fold change” value turned out to be 0.0667.
For RRIRERPPRLPRPRPRPWTGPRP the value was -0.00968.
For RRIRQRPPRLPRPRPRPDRHPRP the value was -0.182.
For the sequence RRIRQRPPRLPRPRPRPLTRPRP, the “shrunken log2 fold change” value amounted to 0.424.
For RRIRWRPPRLPRPRPRPHTYPRP the value was -0.578; for RRIRARPPRLPRPRPRPLVDPRP, 0.498; for RRIRPRPPRLPRPRPRPKLRPRP, 0.204.
For RRIRDRPPRLPRPRPRPPLQPRP, the “shrunken log2 fold change” value was 0.414.
To RRIRDRPPRLPRPRPRPPRRPRP belongs 0.635.
For RRIRQRPPRLPRPRPRPSNMPRP the value was -0.459; for RRIRSRPPRLPRPRPRPHSHPRP, -0.282; for RRIRHRPPRLPRPRPRPVMAPRP, -0.27.
As for RRIRWRPPRLPRPRPRPHFMPRP, the “shrunken log2 fold change” value was -0.398.
